Measured values published in ChEMBL document CHEMBL1908105, “UDP-glucuronosyltransferases and clinical drug-drug interactions” (Pharmacol Ther, 2005).

Experiments:
[1] = Inhibition of AZT glucuronidation by human UGT enzymes from liver microsomes; set-up: species or system Microsome
[2] = molecular target: T1, UGT2B7 (Homo sapiens, UniProt P16662); assay: (§1) Drug glucuronidation reaction catalyzed by human recombinant UGT2B7; settings: recombinant UGT2B7
T1 sequence (P16662 whole entry): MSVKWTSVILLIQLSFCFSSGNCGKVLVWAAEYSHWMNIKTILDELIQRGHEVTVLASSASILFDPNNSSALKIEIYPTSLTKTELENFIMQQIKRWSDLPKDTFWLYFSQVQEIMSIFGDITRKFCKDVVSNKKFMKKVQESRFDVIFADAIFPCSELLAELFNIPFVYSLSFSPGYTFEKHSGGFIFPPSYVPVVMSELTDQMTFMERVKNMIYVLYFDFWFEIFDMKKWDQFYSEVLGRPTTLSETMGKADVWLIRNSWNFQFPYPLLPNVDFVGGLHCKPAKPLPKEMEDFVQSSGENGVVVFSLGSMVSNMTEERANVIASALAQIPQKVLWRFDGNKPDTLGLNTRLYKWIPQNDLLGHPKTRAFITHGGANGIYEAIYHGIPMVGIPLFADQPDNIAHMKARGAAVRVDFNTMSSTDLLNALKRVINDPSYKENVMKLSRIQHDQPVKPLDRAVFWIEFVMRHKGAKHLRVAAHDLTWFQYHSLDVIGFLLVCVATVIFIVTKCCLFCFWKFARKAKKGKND

[3] = molecular target: T2, UDP-glucuronosyltransferase 2B7 (Homo sapiens, UniProt P16662); assay: as §1
T2 sequence (P16662 whole entry): T1 sequence (P16662 whole entry)

[4] = molecular target: T3, UDP-glucuronosyltransferase 1A3 (Homo sapiens, UniProt P35503); assay: (§2) Drug glucuronidation reaction catalyzed by human recombinant UGT1A3
T3 sequence (P35503 whole entry): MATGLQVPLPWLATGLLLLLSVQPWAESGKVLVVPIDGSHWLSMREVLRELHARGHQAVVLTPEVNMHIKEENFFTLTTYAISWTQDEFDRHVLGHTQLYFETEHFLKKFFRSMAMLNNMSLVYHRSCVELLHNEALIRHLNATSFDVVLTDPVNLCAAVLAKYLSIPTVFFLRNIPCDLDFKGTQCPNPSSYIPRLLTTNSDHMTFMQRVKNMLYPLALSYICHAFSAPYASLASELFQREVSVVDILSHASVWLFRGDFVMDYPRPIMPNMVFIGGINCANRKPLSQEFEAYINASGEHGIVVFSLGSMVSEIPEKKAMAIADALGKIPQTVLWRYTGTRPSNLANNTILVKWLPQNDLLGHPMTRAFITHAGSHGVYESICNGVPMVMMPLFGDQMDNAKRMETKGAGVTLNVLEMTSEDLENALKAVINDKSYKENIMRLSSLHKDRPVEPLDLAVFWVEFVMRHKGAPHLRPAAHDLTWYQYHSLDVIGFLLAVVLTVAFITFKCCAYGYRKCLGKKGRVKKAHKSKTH

[5] = molecular target: UGT1A3 (Homo sapiens, UniProt P35503); assay: as §2; settings: recombinant UGT1A3
[6] = substrate: O=C(c1ccc(OCCN2CCCCC2)cc1)c1c(-c2ccc(O[C@H]3O[C@H](C(=O)O)[C@@H](O)[C@H](O)[C@H]3O)cc2)sc2cc(O)ccc12; assay: (§3) Drug glucuronidation reaction catalyzed by human recombinant UGT1A8
[7] = substrate: O=C(c1ccc(OCCN2CCCCC2)cc1)c1c(-c2ccc(O)cc2)sc2cc(O[C@@H]3O[C@H](C(=O)O)[C@@H](O)[C@H](O)[C@H]3O)ccc12; assay: as §3
[8] = substrate: O=C1CC[C@@]2(O)[C@H]3Cc4ccc(O)c5c4[C@@]2(CCN3CC2CC2)[C@H]1O5; assay: as §3
[9] = substrate: COc1c(C)c2c(c(O)c1C/C=C(\C)CCC(=O)O)C(=O)OC2; assay: as §3
[10] = substrate: CN1CC[C@]23c4c5ccc(O[C@@H]6O[C@H](C(=O)O)[C@@H](O)[C@H](O)[C@H]6O)c4O[C@H]2[C@@H](O)C=C[C@H]3[C@H]1C5; assay: as §3
[11] = substrate: CC(C)c1cccc(C(C)C)c1O; assay: not read

Molecule: CC(C(=O)O)c1ccc(-c2ccccc2)c(F)c1 (configuration not stated) [FLURBIPROFEN]
- Ki [1]: 50 µM
- Km [2]: 28 µM
- Vmax [3]: 315 pmol/min/mg protein
- Vmax [4]: 45 pmol/min/mg protein
- Km [5]: 90 µM

B1: UDP-glucuronosyltransferase 1A8 (Homo sapiens) (protein)
chain: MARTGWTSPIPLCVSLLLTCGFAEAGKLLVVPMDGSHWFTMQSVVEKLILRGHEVVVVMPEVSWQLGKSLNCTVKTYSTSYTLEDLDREFMDFADAQWKAQVRSLFSLFLSSSNGFFNLFFSHCRSLFNDRKLVEYLKESSFDAVFLDPFDACGLIVAKYFSLPSVVFARGIACHYLEEGAQCPAPLSYVPRILLGFSDAMTFKERVRNHIMHLEEHLFCQYFSKNALEIASEILQTPVTAYDLYSHTSIWLLRTDFVLDYPKPVMPNMIFIGGINCHQGKPLPMEFEAYINASGEHGIVVFSLGSMVSEIPEKKAMAIADALGKIPQTVLWRYTGTRPSNLANNTILVKWLPQNDLLGHPMTRAFITHAGSHGVYESICNGVPMVMMPLFGDQMDNAKRMETKGAGVTLNVLEMTSEDLENALKAVINDKSYKENIMRLSSLHKDRPVEPLDLAVFWVEFVMRHKGAPHLRPAAHDLTWYQYHSLDVIGFLLAVVLTVAFITFKCCAYGYRKCLGKKGRVKKAHKSKTH
- Km [6]: 59 µM
- Vmax [6]: 0.002 µmol/min/mg
- Km [7]: 8 µM
- Vmax [7]: 0.00061 µmol/min/mg
- Km [8]: 1550 µM
- Vmax [8]: 0.000495 µmol/min/mg
- Km [9]: 298 µM
- Vmax [9]: 0.0326 µmol/min/mg
- Km [10]: 26000 µM
- Vmax [10]: 1.3e-05 µmol/min/mg
- Km [11]: 412 µM
- Vmax [11]: 0.00382 µmol/min/mg
